Measured values reported in patent US20240093191A1, “COMPOSITIONS AND METHODS FOR TREATING DISEASE ASSOCIATED WITH DUX4 OVEREXPRESSION” (RESEARCH INSTITUTE AT NATIONWIDE CHILDREN'S HOSPITAL, priority 2021, published 2024).

What was measured:
Type in all cases: cell-based, human
[1] = test system: mir-675R (reverse complementary sequence of mir-675-5p); assay: Dual-luciferase assay with mir-675 perfect target site (mir-675R) as Renilla 3'UTR; conditions: mir-675R perfect target site; normalized to milacZ
From the text: The QPCR was done using the Taqman probes designed to recognize the mature sequence of mir-675-5p and -3p. mir-675-3p expression was 2.20±0.15-fold higher than that of mir-675-5p (P<0.0001, ANOVA, N=3). Gene expression was normalized to the housekeeping gene RPL13A. Results were reported as the average relative gene expression±SEM of three replicates (N=3). […] The miRNA (pmoles) was used at 40-fold of the RenLuc-DUX4-FL (pmoles). When testing the U6.mir-675-3p construct, the relative Renilla luciferase kept on average 95% (P<0.2, ANOVA) of its activity, even though U6.mir-675-3p expressed high levels of mir-675-3p relative to the negative control mir-675-5p levels. On the other hand, U6.mir-675-5p was able to reduce the relative Renilla luciferase activity on average by 33±3% (P<0.0001, ANOVA, N=3). All readings were normalized to the milacZ negative control. Results were reported as the average relative Renilla luciferase activity±SEM of three replicates (N=3). […] This sequence was cloned as a 3′UTR downstream the Renilla luciferase gene. […] All readings were normalized to the milacZ negative control. […]
Dual Luciferase Assay. […] Luciferase activity was measured 24h or 48h after transfection. DUX4 gene silencing was determined as previously described [Wallace et al., Mol. Ther. Methods Clin. Dev. […]

[2] = test system: pri-mir-675; assay: TaqMan QRT-PCR of pri-mir-675 from transfected constructs in HEK293 cells; conditions: 24 h post-transfection
From the text: RNA Extraction. RNA from HEK293 cells was extracted for Northern blot assay and QPCR. The miRVANA miRNA isolation kit (ThermoFisher Scientific) was used according to manufacturer's directions to extract total RNA encompassing small RNAs, such as miRNAs. To extract RNA from C57BL/6 skeletal muscles, cryopreserved muscles were crushed under suboptimal temperatures using liquid nitrogen and using mortar and pestle. Crushed muscles were then lysed using […] of miRVANA miRNA isolation kit lysis buffer, a TissueLyser and 1.0 mm zirconia beads (Biospec). Muscle was homogenized at 30 Hz for 30 sec with 10 sec rest. This was repeated 3 times.
TaqMan Gene Expression Assay. QRT-PCR was carried out to quantify the expression of pri-mir-675, mir-675-5p and mi405 using TaqMan probes (ThermoFisher Scientific). Experiments were started by eliminating genomic DNA from the RNA preparations, and then cDNA was generated using the High-Capacity cDNA Reverse Transcription Kit (Applied Biosystems) following manufacturer's instructions. Within the same cDNA reaction, 1×RT random hexamer primers were used to generate the cDNA for RPL13A, used as a reference gene, and for pri-mir-675. To generate the cDNA for mir-675, the RT mir-675 reverse primer provided by ThermoFisher Scientific was used. For mi405, the mi405 qPCR protocol was done as it was previously described [Wallace et al., Mol. Ther. Methods Clin. Dev. 8: 121-30 (2018)]. To quantify mir-675 and mi405 levels, RNA was extracted using the total RNA protocol for the mirVana miRNA Isolation Kit (Ambion) from HEK293 cells. cDNA was generated using the High-Capacity cDNA Reverse Transcription Kit (Applied Biosystems) using a mix of random hexamer primers and specific reverse primer for pri-mir-675 and mir-675-5p. For mi405, 200 nM of the stem-loop forming primer (5′-[…]-3′) (SEQ ID NO: 144) was also used for the RT step. A custom TaqMan assay (Applied Biosystems) including 1.5 μM of Forward primer (5′-[…]-3′) (SEQ ID NO: 145), 0.7 μM of Reverse primer (5′-GTGCAGGGTCCGAGGT-3′) (SEQ ID NO: 146), and 0.2 μM of mi405 probe (5′-6FAM-ATACGACGTCCAGGAT-3′) (SEQ ID NO: 147) was then run using the CFX Connect Real Time system apparatus (Bio-Rad). RPL13A (Mm02526700_g1; Applied Biosystems) served as the reference gene. The TaqMan gene expression assay consisted of using the TaqMan Gene Expression Master mix and TaqMan probes purchased from ThermoFisher Scientific. 1× of probe was mixed with 1× of the TaqMan Gene Expression Master mix (ThermoFisher Scientific), and with 20 ng of cDNA. The mir-675- and mi405-specific primers and probes were designed to quantify only the mir-675-5p and mi405 mature sequence (see TaqMan Gene Expression Master mix protocol).

[3] = test system: DUX4 mRNA; assay: QPCR (SYBR green) of DUX4 mRNA in co-transfected HEK293 cells; conditions: 3 to 1 ratio with DUX4 construct, normalized to egfp, relative to milacZ
Method: H1.mir-675 construct was transfected in a 3 to 1 ratio with DUX4 construct in HEK293 cells, and collected RNA extracts 24 and 48h after transfection. Total RNA was prepared using the miRVANA isolation kit. DUX4 and egfp (used as the reference gene) mRNA levels were determined using the SYBR green master mix as described in materials and methods. All values were normalized to egfp, and were reported relative to milacZ treated samples. At 24 and 48h after transfection, DUX4 levels decreased by an average of 37±2% (P<0.0001, ANOVA, N=3) and 51±2% (P<0.0001, ANOVA, N=3), respectively. Results were reported as the average relative DUX4 expression±SEM of three replicates. […] When compared to the milacZ sample, mir-675-5p overexpressed levels were ˜2000-fold higher (P<0.0001, ANOVA, N=3). Results were reported as the average relative mir-675-5p expression (2^−ΔCq)±SEM of three replicates.

Row | Molecule | reduction of relative Renilla luciferase activity (maximum inhibition) [1] [%] | pri-mir-675 levels compared to U6.mir-675 [2] [%] | decrease of DUX4 mRNA levels ([3]; 24 h) [%] | decrease of DUX4 mRNA levels ([3]; 48 h) [%]
1 | U6.mir-675: U6 promoter-driven mir-675 expression plasmid with 40 nt 5' and 47 nt 3' flanking sequences (nucleic acid) DNA: GACGCCGCCATCTCTAGGCCCGCGCCGGCCCCCTCGCACAGACTTGTGGGAGAAGCTCGGCTACTCCCCTGCCCCGGTTAATTTGCATATAATATTTCCTAGTAACTATAGAGGCTTAATGTGCGATAAAAGACAGATAATCTGTTCTTTTTAATACTAGCTACATTTTACATGATAGGCTTGGATTTCTATAAGAGATACAAATACTAAATTATTATTTTAAAAAACAGCACAAAAGGAAACTCACCCTAACTGTAAAGTAATTGTGTGTTTTGAGACTATAAATATCCCTTGGAGAAAAGCCTTGTTTGCGTTTAGTGAACCGTCAGATGGTACCGTTTAAACTCGAGCCCAGGGTCTGGTGCGGAGAGGGCCCACAGTGGACTTGGTGACGCTGTATGCCCTCACCGCTCAGCCCCTGGGACTAGAGCGGCCGCCACAGCGGGGAGATCCAGACATGATAAGATACATTTTTT | 41±12 |  |  | 
2 | H1.mir-675: commercially available H1 promoter mir-675 expression plasmid (SBI Biosciences) (nucleic acid) DNA: GAACGCTGACGTCATCAACCCGCTCCAAGGAATCGCGGGCCCAGTGTCACTAGGCGGGAACACCCAGCGCGCGTGCGCCCTGGCAGGAAGATGGCTGTGAGGGACAGGGGAGTGGCGCCCTGCAATATTTGCATGTCGCTATGTGTTCTGGGAAATCACCATAAACGTGAAATGTCTTTGGATTTGGGAATCTTATAAGTTCTGTATGAGACCACCCCCCAGGGTCTGGTGCGGAGAGGGCCCACAGTGGACTTGGTGACGCTGTATGCCCTCACCGCTCAGCCCCTGGGGAATTCTTCGATTCTGCTTTTTT |  | 320±43 | 37±2 | 51±2
